Assay results as given in patent US20180030127A1 (APRILBIO, published 2018).

Tests used:
[1] = molecular target: T1, mouse serum albumin (mouse, UniProt P07724 25-608); assay: biolayer interferometry (Octet RED), SL335 on AR2G biosensor, MSA in solution, pH 6; the filing calls the data unreliable; pH 6; left out of Table 6 for lack of reliability
T1 construct: Bought protein; also called MSA; mouse SA
Method: (§1) Real-time binding assays between the purified SL335 and the antigens (human SA, rat SA or mouse SA) were performed using biolayer interferometry with an Octet RED system (ForteBio, Menlo park, Calif., USA) as previously described except that AR2G (Amine Reactive Second-Generation) sensors were used (Costin et al., (2013) J Virol. 87, 52-66). Briefly, the predetermined concentration of SL335 was coupled to kinetics grade AR2G biosensors, and unbound Fab fragments were removed from the surfaces of the sensors by incubating in the kinetics buffer […]. […] The binding and dissociation kinetics were calculated using the Octet QK software package, which fit the observed binding curves to a 1:1 binding model to calculate the association rate constants. The association and dissociation rate constants were calculated using at least three different concentrations of human SA, rat SA or mouse SA. The equilibrium dissociation constants were calculated as the kinetic dissociation rate constant divided by the kinetic association rate constant.

[2] = molecular target: T2, bovine serum albumin (bovine, UniProt P02769 25-607); assay: monoclonal phage ELISA at pH 6, antigen coated at 5 ug/ml, anti-human kappa-HRPO, A450
T2 construct: also called BSA; bovine SA
T2 sequence (P02769 25-607 limits assumed): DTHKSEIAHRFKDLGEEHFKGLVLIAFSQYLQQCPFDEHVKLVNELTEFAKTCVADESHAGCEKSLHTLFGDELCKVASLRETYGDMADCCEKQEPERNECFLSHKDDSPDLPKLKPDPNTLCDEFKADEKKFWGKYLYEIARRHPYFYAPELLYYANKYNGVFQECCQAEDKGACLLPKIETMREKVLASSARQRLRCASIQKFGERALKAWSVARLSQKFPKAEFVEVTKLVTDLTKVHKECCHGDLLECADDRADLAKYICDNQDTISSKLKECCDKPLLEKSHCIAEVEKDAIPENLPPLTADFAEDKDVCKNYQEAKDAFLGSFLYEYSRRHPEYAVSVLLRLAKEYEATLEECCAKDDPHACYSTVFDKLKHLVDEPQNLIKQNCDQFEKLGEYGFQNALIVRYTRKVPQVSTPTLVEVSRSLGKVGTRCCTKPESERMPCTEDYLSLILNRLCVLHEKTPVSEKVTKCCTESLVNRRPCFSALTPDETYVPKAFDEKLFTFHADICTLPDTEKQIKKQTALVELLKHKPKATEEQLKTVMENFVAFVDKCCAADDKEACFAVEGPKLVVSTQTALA
Method: For the monoclonal phage ELISA, the recombinant phage was obtained from positive E. coli clones by phage rescue, and ˜10⁸ CFU/well were added to MaxiSorb ELISA plates (Nunc, Roskilde, Denmark) that were coated with 5 μg/ml HSA, RSA, MSA or BSA. The phage was allowed to bind to the antigens either at pH 6 or at pH 7.4 for 1 h at 37° C. A goat anti-human kappa L Ab-conjugated with HRPO (Sigma-Aldrich) was used as a secondary antibody. The binding signals were visualized with a TMB substrate (BD Science, San Jose, Calif., USA), and the absorbance at 450 nm was measured using an ELISA reader (Bio-Rad, Hercules, Calif., USA). The data represent the average of three experiments standard deviation. For the conventional ELISA, the various antigens [human SA, rat SA, mouse SA, monkey SA (Alpha diagnositic Intl., San Antonio, Tex., USA), canine SA (CUSABIO, Wuhan, Hubei, China). rabbit SA (Sigma-Aldrich), epidermal growth factor receptor (EGFR) (R&D systems, Minneapolis, Minn., USA), epithelial cell adhesion molecule (EpCAM) (R&D systems), IL-15 receptor a (IL-15Ra) (R&D systems), IL-10 (eBioscience, San Diego, Calif., USA), CD16a (R&D systems), c-MET (Sinobiological, Beijing, China)] at 5 μg/ml concentrations were immobilized on the microtiter plates, and the Fab molecules were allowed to bind to the antigens, and detected as above. To determine the concentration of soluble Fab or Fab-hGH fusion proteins, a sandwich ELISA was performed using a mouse anti-human IgG Fd mAb (AprilBio) as a capturing Ab and the goat anti-human kappa L chain pAb-HRPO conjugated (Sigma-Aldrich) as a detecting antibody. The human Fab fragment (Bethyl, Montgomery, Tex., USA) with a known concentration was used to draw the standard curve. For detecting the hGH domain, T-20, a goat pAb specific for the C-terminus of the hGH (Santacruz Biotechnology, Dallas, Tex., USA) and NYThGH, a mouse mAb specific for full-length hGH (Prospec, East Brunswick, N.J., USA) were used followed by a rabbit anti-goat IgG pAb-HRPO conjugated (Sigma-Aldrich) or a goat anti-mouse IgG pAb-HRPO conjugated (Sigma-Aldrich), respectively as a secondary antibody. A goat anti-human GCSF pAb (R&D Systems) was used to detecting the G-CSF domain, and a rabbit anti-human IFN-β pAb (PEPROTECH, Rocky Hill, USA) was used to detect the IFN-β domain.

[3] = molecular target: T3, human serum albumin (human, UniProt P02768 25-609); assay: biolayer interferometry (Octet RED), SL335 on AR2G biosensor, HSA in solution, pH 6.0
T3 construct: Bought protein; also called HSA; human SA
Method: as §1
(§2) Since SL335 was the best binder among four anti-human SA Fab clones, its cross-reactivity was further analyzed by ELISA. […] The binding affinities of SL335 to human SA, rat SA and mouse SA at pH 6 or pH 7.4 were further measured via biolayer interferometry by passing through different concentration of the antigens on biosensors that were coated with SL335 (see Table 6 below).

[4] = molecular target: T3, human serum albumin; assay: ELISA, purified soluble Fab on coated HSA
[5] = molecular target: T4, rat serum albumin (rat, UniProt P02770 25-608); assay: ELISA, purified soluble Fab on coated RSA, pH 7.4; rat SA, pH 7.4
T4 construct: Bought protein; also called RSA; rat SA
T4 sequence (P02770 25-608 limits assumed): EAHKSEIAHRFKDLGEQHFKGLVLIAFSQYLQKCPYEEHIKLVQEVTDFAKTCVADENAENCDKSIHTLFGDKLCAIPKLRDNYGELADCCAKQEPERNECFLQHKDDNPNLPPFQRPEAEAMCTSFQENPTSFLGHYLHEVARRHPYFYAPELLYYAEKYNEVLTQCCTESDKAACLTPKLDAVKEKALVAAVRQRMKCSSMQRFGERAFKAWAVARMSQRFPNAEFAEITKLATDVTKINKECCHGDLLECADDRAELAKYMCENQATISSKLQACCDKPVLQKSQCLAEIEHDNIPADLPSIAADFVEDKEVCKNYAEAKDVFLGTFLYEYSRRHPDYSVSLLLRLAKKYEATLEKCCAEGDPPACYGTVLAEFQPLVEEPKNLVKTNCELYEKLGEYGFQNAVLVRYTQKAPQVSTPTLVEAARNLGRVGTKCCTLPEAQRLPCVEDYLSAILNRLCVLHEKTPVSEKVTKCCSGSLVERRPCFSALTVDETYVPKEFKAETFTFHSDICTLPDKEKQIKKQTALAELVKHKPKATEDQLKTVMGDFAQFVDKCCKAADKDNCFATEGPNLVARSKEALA
Method: (§3) For the monoclonal phage ELISA, the recombinant phage was obtained from positive E. coli clones by phage rescue, and ˜10⁸ CFU/well were added to MaxiSorb ELISA plates (Nunc, Roskilde, Denmark) that were coated with 5 μg/ml HSA, RSA, MSA or BSA. The phage was allowed to bind to the antigens either at pH 6 or at pH 7.4 for 1 h at 37° C. A goat anti-human kappa L Ab-conjugated with HRPO (Sigma-Aldrich) was used as a secondary antibody. The binding signals were visualized with a TMB substrate (BD Science, San Jose, Calif., USA), and the absorbance at 450 nm was measured using an ELISA reader (Bio-Rad, Hercules, Calif., USA). The data represent the average of three experiments standard deviation. For the conventional ELISA, the various antigens [human SA, rat SA, mouse SA, monkey SA (Alpha diagnositic Intl., San Antonio, Tex., USA), canine SA (CUSABIO, Wuhan, Hubei, China). rabbit SA (Sigma-Aldrich), epidermal growth factor receptor (EGFR) (R&D systems, Minneapolis, Minn., USA), epithelial cell adhesion molecule (EpCAM) (R&D systems), IL-15 receptor a (IL-15Ra) (R&D systems), IL-10 (eBioscience, San Diego, Calif., USA), CD16a (R&D systems), c-MET (Sinobiological, Beijing, China)] at 5 μg/ml concentrations were immobilized on the microtiter plates, and the Fab molecules were allowed to bind to the antigens, and detected as above. […]

[6] = molecular target: T4, rat serum albumin; assay: biolayer interferometry (Octet RED), SL335 on AR2G biosensor, RSA in solution, pH 6.0
Method: as §1, §2

[7] = molecular target: T4, rat serum albumin; assay: biolayer interferometry (Octet RED), SL335 on AR2G biosensor, RSA in solution, pH 7.4
Method: as §1, §2

[8] = molecular target: T3, human serum albumin; assay: ELISA, purified soluble Fab, pH 6
Method: as §3

[9] = molecular target: T4, rat serum albumin; assay: ELISA, purified soluble Fab on coated RSA, pH 6; rat SA, pH 6
Method: as §3

[10] = molecular target: T3, human serum albumin; assay: ELISA, purified soluble Fab on coated HSA, pH 7.4; human SA, pH 7.4
Method: as §3

[11] = molecular target: T1, mouse serum albumin; assay: biolayer interferometry (Octet RED), SL335 on AR2G biosensor, MSA in solution, pH 7.4; the filing calls the data unreliable; pH 7.4; left out of Table 6 for lack of reliability
Method: as §1
Since SL335 was the best binder among four anti-human SA Fab clones, its cross-reactivity was further analyzed by ELISA. […]

[12] = molecular target: T3, human serum albumin; assay: ELISA, purified soluble Fab, pH 7.4
Method: as §3

T1 sequence (P07724 25-608 limits assumed): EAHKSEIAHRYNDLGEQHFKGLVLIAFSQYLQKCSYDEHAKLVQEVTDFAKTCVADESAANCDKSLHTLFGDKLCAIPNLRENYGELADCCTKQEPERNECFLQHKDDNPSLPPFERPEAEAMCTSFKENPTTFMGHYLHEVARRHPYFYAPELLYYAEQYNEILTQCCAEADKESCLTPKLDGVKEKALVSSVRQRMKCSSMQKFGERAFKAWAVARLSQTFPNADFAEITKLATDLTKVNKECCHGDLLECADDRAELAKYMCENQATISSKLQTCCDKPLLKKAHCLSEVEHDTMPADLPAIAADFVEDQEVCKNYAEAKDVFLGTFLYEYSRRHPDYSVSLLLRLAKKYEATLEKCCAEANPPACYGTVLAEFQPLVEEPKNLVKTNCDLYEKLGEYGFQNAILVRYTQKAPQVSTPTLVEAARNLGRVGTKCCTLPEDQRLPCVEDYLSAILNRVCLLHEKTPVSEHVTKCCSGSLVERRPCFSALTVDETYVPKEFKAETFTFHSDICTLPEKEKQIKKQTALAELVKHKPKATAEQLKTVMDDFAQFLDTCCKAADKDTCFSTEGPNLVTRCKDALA

B1: SL335 (Fab, V domains shown)
VH: QVQLVQSGGGPVKPGGSLRLSCAASGFMFRAYSMNWVRQAPGKGLEWVSSISSSGRYIHYADSVKGRFTISRDNAKNSLYLQMNSLRAEDTAVYYCARETVMAGKALDYWGQGTLVTVSS
VL: ELVLTQSPGTLSLSPGETATLSCRASQSVGSNLAWYQQKPGQAPRLLIYGASTGATGVPARFSGSRSGTDFTLTITSLQPEDFATYYCQQYYSFLAKTFGQGTQLEIKR
notes: Human anti-serum albumin Fab in the classic form (VH+CH1 with Cys233, VL+CLk with Cys214); tested on phage and as soluble Fab purified from E. coli; also called SL335wt; SL335 Fab
Kd [1]: ~10000 nM | binding result [2]: no binding | Kd [3]: 8.68 nM | koff [3]: 0.00155 s⁻¹ | kon [3]: 179000 M⁻¹ s⁻¹ | fold stronger binding at pH 6 than at pH 7.4 [4]: 2 fold | EC50 [5]: 0.16 µg/mL | Kd [6]: 122 nM | koff [6]: 0.00576 s⁻¹ | kon [6]: 47100 M⁻¹ s⁻¹ | Kd [7]: 65.3 nM | koff [7]: 0.00282 s⁻¹ | kon [7]: 43200 M⁻¹ s⁻¹ | fold stronger binding than to rat SA at pH 6 [8]: 20 fold | EC50 [9]: 0.4 µg/mL | EC50 [10]: 0.04 µg/mL | Kd [11]: ~1600 nM | fold stronger binding than to rat SA at pH 7.4 [12]: 4 fold
